For series [1], the system named is LexA S119A (Escherichia coli). The experiment in a line: EMSA. (In general: Mobility shift assays separate free from complexed probe on a gel.)
The test system of series [2] is LexA WT (Escherichia coli). The experiment in a line: EMSA.

The Kd is the free concentration of one partner at which half of the binding sites on the other are occupied at equilibrium, for simple one-to-one binding. A low value points to tighter binding.

Regarding 44-bp SOS consensus operator duplex, the results for the Kd in series [1] and in series [2] were 43 nM and 47 nM, respectively.

These data come from publication PMC5696648.
